Tests used:
[1] = used to stage breast cancer and melanoma; cited from earlier work
[2] = molecular target: mannose receptor CD206 (Homo sapiens, UniProt P22897); details: when administered to mammals; no other receptors bind or transduce
Source text: CD206 is a C-type […] binding protein found on the surface of macrophages.

Sequence of mannose receptor CD206 (P22897 19-1456): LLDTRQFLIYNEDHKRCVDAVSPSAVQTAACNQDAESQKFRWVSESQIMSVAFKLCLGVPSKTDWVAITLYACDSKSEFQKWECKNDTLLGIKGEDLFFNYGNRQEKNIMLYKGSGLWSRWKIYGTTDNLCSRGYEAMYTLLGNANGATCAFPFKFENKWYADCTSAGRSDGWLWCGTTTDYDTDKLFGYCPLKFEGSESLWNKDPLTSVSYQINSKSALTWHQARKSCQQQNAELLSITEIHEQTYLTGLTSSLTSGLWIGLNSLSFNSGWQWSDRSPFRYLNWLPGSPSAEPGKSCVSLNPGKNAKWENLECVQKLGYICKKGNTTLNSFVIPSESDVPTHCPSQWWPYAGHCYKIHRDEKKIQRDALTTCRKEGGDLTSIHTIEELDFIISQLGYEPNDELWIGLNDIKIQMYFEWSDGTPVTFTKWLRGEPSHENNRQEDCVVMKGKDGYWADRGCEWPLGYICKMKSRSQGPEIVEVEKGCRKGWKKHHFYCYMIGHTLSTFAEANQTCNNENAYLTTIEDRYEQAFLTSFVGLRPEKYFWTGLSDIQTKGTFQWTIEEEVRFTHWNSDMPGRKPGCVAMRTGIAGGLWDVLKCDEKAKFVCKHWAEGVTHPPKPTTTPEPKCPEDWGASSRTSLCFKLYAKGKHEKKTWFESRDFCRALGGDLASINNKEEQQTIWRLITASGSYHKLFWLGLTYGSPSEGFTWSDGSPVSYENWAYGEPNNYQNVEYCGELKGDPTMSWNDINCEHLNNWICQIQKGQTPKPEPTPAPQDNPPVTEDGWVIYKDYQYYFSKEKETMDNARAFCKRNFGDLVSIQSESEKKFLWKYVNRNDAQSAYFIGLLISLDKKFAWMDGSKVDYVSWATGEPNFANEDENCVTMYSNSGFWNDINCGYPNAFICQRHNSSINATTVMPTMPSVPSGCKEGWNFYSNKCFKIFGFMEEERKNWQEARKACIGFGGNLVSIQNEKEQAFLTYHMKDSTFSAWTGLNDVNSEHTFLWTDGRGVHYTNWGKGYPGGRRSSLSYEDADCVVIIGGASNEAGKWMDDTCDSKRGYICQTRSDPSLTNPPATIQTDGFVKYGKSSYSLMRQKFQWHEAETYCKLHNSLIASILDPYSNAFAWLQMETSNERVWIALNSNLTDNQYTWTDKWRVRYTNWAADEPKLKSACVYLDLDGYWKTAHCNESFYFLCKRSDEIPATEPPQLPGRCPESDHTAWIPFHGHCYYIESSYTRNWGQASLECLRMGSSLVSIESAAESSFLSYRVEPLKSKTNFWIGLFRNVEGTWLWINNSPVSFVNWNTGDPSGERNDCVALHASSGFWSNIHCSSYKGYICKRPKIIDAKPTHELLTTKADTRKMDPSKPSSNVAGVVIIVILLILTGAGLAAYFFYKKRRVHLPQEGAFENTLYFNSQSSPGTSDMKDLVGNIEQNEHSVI

Substance	clearance from injection site [1]	uptake by distal or second-echelon lymph nodes [1]	uptake by sentinel lymph node(s) [1]	receptor binding specificity [2]
technetium Tc 99m, dextran 3-[(2-aminoethyl)thio]propyl 17-carboxy-10,13,16-tris(carboxymethyl)-8-oxo-4-thia-7,10,13,16-tetraazaheptadec-1-yl 3-[[2-[[1-imino-2-(D-mannopyranosylthio) ethyl]amino]ethyl]thio]propyl ether complexes [technetium Tc 99m labeled tilmanocept]	rapid clearance from an injection site	low uptake by distal or second-echelon lymph nodes	rapid and sustained uptake by the sentinel lymph node(s)	
dextran 3-[(2-aminoethyl)thio]propyl 17-carboxy-10,13,16-tris(carboxymethyl)-8-oxo-4-thia-7,10,13,16-tetraazaheptadec-1-yl 3-[[2-[[1-imino-2-(D-mannopyranosylthio) ethyl]amino]ethyl]thio]propyl ether complexes [tilmanocept]				bind exclusively to the mannose receptor CD206

— US20210338848A1, “COMPOSITIONS AND METHODS FOR DIAGNOSING AND TREATING MACROPHAGE-RELATED DISORDERS USING CARBOHYDRATE-BASED MACR[…]” (Cardinal Health 414, LLC, priority 2016, published 2021)
